The target in this assay is AjFER-D129A/E132A mutant (Apostichopus japonicus). Description: crystal structure; M3 at approx. 15 mg/mL in 25 mM Tris-HCl, pH 8.0, 150 mM NaCl; crystals from 0.05 M cadmium sulfate hydrate, 0.1 M HEPES, pH 7.5, 1.0 M sodium acetate trihydrate, 18 °C; assembly of subunits into the cage.

By stoichiometry N is commonly meant the number of molecules, sites or subunits per partner or assembly. AjFER-D129A/E132A mutant returned a stoichiometry N of 24.
